Measured values as given in patent publication US20190211111A1.
pEC50: −log10 of the molar value.

biological target: GCN4 peptide-fused αCD19 Fab (Rodgers et al.); assay: ELISA, coated GCN4 peptide-fused αCD19 Fab, detection with anti-human lambda-HRP

pEC50, 9.00:
αGCN4-Fab (LC-S155X, HC-K129X, X=pAcF)
αGCN4-Fab (LC-G202X, HC-K129X, X=pAcF)
αGCN4-Fab (LC-S193X, HC-K129X, X=pAcF)
